Earlier results in paper PMC4059402 (Chembiochem : a European journal of chemical biology, 2014).

Conditions: with laurate

B1: wild-type CYP102A1: long-chain fatty acid monoxygenase CYP102A1 (P450BM3) from B. megaterium (protein, UniProt P14779 1-1049, looked up)
Bifunctional cytochrome …: MTIKEMPQPKTFGELKNLPLLNTDKPVQALMKIADELGEIFKFEAPGRVTRYLSSQRLIKEACDESRFDKNLSQALKFVRDFAGDGLFTSWTHEKNWKKAHNILLPSFSQQAMKGYHAMMVDIAVQLVQKWERLNADEHIEVPEDMTRLTLDTIGLCGFNYRFNSFYRDQPHPFITSMVRALDEAMNKLQRANPDDPAYDENKRQFQEDIKVMNDLVDKIIADRKASGEQSDDLLTHMLNGKDPETGEPLDDENIRYQIITFLIAGHETTSGLLSFALYFLVKNPHVLQKAAEEAARVLVDPVPSYKQVKQLKYVGMVLNEALRLWPTAPAFSLYAKEDTVLGGEYPLEKGDELMVLIPQLHRDKTIWGDDVEEFRPERFENPSAIPQHAFKPFGNGQRACIGQQFALHEATLVLGMMLKHFDFEDHTNYELDIKETLTLKPEGFVVKAKSKKIPLGGIPSPSTEQSAKKVRKKAENAHNTPLLVLYGSNMGTAEGTARDLADIAMSKGFAPQVATLDSHAGNLPREGAVLIVTASYNGHPPDNAKQFVDWLDQASADEVKGVRYSVFGCGDKNWATTYQKVPAFIDETLAAKGAENIADRGEADASDDFEGTYEEWREHMWSDVAAYFNLDIENSEDNKSTLSLQFVDSAADMPLAKMHGAFSTNVVASKELQQPGSARSTRHLEIELPKEASYQEGDHLGVIPRNYEGIVNRVTARFGLDASQQIRLEAEEEKLAHLPLAKTVSVEELLQYVELQDPVTRTQLRAMAAKTVCPPHKVELEALLEKQAYKEQVLAKRLTMLELLEKYPACEMKFSEFIALLPSIRPRYYSISSSPRVDEKQASITVSVVSGEAWSGYGEYKGIASNYLAELQEGDTITCFISTPQSEFTLPKDPETPLIMVGPGTGVAPFRGFVQARKQLKEQGQSLGEAHLYFGCRSPHEDYLYQEELENAQSEGIITLHTAFSRMPNQPKTYVQHVMEQDGKKLIELLDQGAHFYICGDGSQMAPAVEATLMKSYADVHQVSEADARLWLQQLEEKGRYAKDVWAG
catalytic rate: 1,680 min^−1
